The source of these data is US20200207858A1 (ADICET BIO, published 2020).

Assay [1] concerns the target T1, Single-chain HLA-A2 (scHLA-A2)/TyrD 369-377 peptide complex.
T1 construct: Used as the soluble analyte in SPR; not shown: flexible linker
Nature of the assay: SPR (ProteOn), IgG captured by immobilized anti-human antibody, scHLA-A2/TyrD complex as analyte at 16-250 nM, apparent affinity.

The target in assay [2] is T1, Single-chain HLA-A2 (scHLA-A2)/TyrD …. Nature of the assay: SPR (ProteOn), IgG captured by immobilized anti-human antibody, scHLA-A2/TyrD 369-377 as analyte (250-16 nM), Langmuir kinetic fit, column KD.
Method: (§1) Briefly, six channels of ProteOn GLM sensor chip (BioRad laboratories) were activated with 50 μl of a mixture of 0.04 M N-ethyl-N′-(3-dimethylaminopropyl) carbodiimide (EDC) and 0.01 M sulfo-N-hydroxysuccinimide (Sulfo-NHS) at a flow rate of 30 μl/min. The anti-mouse or anti-human polyclonal antibodies (Jackson ImmunoResearch) were diluted in 10 mM sodium acetate buffer pH 4.5 to a final concentration of 25 μg/ml and 150 μl were injected followed by an injection of 150 μl of 1 M ethanolamine-HCl pH 8.5. The IgG TCRL antibodies were injected in the vertical orientation with a flow rate of 30 μl/min. […] Running buffer (PBST) was injected simultaneously in the sixth channel for double referencing to correct for loss of the captured antibodies from the chip sensor surface during the experiment. All binding sensorgrams were collected, processed and analyzed using the integrated ProteOn Manager (Bio-Rad Laboratories, Hercules, USA) software. Binding curves were fitted using the Langmuir model describing 1:1 binding stoichiometry, or with the Langmuir and mass transfer limitation model.
The target is the same in assay [3]. The assay is described as follows: SPR (ProteOn), IgG captured by immobilized anti-mouse antibody, scHLA-A2/TyrD complex as analyte at 16-250 nM, apparent affinity.
Method: as §1
Assay [4] has the same target. The assay is described as follows: SPR (ProteOn), IgG captured by immobilized anti-mouse antibody, scHLA-A2/TyrD 369-377 as analyte (250-16 nM), Langmuir kinetic fit, column KD.
Method: as §1

B1: hD11-5 TCRL antibody (humanized D11) (antibody, human IgG1, kappa, V domains shown)
VH: QITLKESGPTLVKPTQTLTLTCTFSGFSLSTSGMGVSWIRQPPGKALEWLAHIYWDDDKRYNPSLKSRLTITKDTSKNQVVLTMTNMDPVDTATYYCARKDYGSSFYAMHYWGQGTLVTVSS
VL: DIQMTQSPSSLSASVGDRVTITCKASQDIHNYIAWYQQKPGKAPKLLIHYTSTLQPGVPSRFSGSGSGTDFTFTISSLQPEDIATYYCLQYDNLWTFGQGTKVEIKR
notes: The antibody was biotinylated for flow cytometry; also called dH11-5
Consider B1, for which the Kd in assay [1] is 3.9 nM; in assay [2] it was 4.61 nM.

B2: D11 TCRL antibody (murine parental monoclonal antibody) (antibody, mouse IgG1, kappa, V domains shown)
VH: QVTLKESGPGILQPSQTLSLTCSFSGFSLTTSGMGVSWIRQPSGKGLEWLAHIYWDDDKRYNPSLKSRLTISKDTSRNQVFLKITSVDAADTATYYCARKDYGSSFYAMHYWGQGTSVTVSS
VL: DIQMTQSPSSLSASLGGKVTITCKASQDIHNYIAWYQHKPVKGPRLLIHYTSTLQPGTPSRFSGSGSGRDYSFSISNLEPEDIATYYCLQYDNLWTFGGGTKLEIKR
notes: Mouse IgG1 isotype, recombinant from Expi293 cells; The antibody was biotinylated for flow cytometry; also called mouse parental D11
With B2, the Kd in assay [3] came to 4.6 nM; in assay [4], 3.98 nM.
